Here are results for one molecule from patent publication US6682911 (GENERAL HOSPITAL, dated 2004).

This test addresses T1, human laminin β1 subunit (human, UniProt P07942 22-1786).
T1 construct: 185 kDa chain from laminin 12 isolated from human placental chorionic villi, reduced and resolved by SDS-PAGE; also called 185 kDa band; 185 kDa chain
Briefly: trimer isolated from placenta; non-reducing then reducing SDS-PAGE and peptide sequencing of the chains. The source says:
Protein sequencing was done according to Aebersold et al. (1987). The complex laminin 5-laminin 7 was run on a polyacrylamide gel in the presence of 2-mercaptoethanol and blotted onto a nitrocellulose membrane (Biorad). The 190 kDa band of β2 and the 165 kDa α3 band were separately excised and digested by protease trypsin. The digested product was separated by HPLC and one fragment was sequenced on an Applied Biosystems sequenator (Applied Biosystems, Foster City, Calif.). The 205 kDa chain contained a sequence identical to human laminin α2, and was thus identified as human laminin α2 subunit. The 185 kDa produced two peptides identical to human β1, and was thus identified as human laminin β1 subunit. The band at 170 kDa contained three sequences not contained in any known laminin chain. A N-terminal sequence of the 170 kDa chain was also determined. In addition, the N-terminal sequence was not identical to any known laminin sequence.

T1 sequence (P07942 22-1786 Q1022R limits assumed): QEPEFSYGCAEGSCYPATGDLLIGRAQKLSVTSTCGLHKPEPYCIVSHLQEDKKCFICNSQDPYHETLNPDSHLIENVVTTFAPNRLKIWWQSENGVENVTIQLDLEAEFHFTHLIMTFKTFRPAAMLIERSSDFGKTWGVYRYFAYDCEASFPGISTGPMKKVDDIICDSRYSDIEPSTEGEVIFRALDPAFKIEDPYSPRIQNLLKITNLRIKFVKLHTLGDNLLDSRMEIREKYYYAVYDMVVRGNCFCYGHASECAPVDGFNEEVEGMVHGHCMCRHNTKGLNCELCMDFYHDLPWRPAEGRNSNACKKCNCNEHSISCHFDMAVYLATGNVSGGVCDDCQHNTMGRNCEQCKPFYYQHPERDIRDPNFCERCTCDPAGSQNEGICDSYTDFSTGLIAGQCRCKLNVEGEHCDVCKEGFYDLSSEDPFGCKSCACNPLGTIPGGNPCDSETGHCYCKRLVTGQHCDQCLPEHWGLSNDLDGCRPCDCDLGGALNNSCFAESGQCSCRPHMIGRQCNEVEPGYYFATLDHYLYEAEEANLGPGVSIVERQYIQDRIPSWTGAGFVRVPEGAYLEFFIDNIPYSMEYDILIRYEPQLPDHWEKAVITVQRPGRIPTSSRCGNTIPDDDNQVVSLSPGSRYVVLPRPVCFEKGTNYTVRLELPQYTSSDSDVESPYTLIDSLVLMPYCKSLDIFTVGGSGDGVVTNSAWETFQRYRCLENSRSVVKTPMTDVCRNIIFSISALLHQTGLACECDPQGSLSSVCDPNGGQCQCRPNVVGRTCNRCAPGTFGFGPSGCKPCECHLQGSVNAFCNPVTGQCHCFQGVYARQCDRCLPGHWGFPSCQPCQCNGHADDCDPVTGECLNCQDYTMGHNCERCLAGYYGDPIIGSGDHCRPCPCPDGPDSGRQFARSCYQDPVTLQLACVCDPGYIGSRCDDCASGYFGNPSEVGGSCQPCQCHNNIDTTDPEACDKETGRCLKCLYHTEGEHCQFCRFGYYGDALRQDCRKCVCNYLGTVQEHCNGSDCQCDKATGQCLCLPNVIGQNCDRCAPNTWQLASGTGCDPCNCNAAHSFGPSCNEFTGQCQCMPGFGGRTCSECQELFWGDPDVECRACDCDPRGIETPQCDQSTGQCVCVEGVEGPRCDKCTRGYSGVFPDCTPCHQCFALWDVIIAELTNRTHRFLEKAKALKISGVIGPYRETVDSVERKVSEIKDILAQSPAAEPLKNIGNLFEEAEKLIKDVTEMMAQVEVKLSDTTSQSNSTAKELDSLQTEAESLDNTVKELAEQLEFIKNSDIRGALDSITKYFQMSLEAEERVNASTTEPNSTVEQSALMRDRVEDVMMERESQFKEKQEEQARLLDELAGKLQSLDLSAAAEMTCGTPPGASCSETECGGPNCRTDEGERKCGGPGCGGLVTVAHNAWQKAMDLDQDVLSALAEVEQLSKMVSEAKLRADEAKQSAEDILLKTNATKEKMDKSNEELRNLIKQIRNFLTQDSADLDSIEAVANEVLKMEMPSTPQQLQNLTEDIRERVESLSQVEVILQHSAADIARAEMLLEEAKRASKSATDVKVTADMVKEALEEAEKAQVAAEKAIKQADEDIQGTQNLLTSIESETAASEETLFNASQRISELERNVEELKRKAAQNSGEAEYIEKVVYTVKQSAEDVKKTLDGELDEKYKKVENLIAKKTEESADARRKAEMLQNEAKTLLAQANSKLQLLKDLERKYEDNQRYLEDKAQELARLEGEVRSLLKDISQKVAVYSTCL

B1: human laminin γ3 subunit (other)
chain: AGMGACYDGAGRPQRCLPVFENAAFGRLAQASHTCGSPPEDFCPHVGAAGAGAHCQRCDAADPQRHHNASYLTDFHSQDESTWWQSPSMAFGVQYPTSVNITLRLGKAYEITYVRLKFHTSRPESFAIYKRSRADGPWEPYQFYSASCQKTYGRPEGQYLRPGEDERVAFCTSEFSDISPLSGGNVAFSTLEGRPSAYNFEESPGLQEWVTSTELLISLDRLNTFGDDIFKDPKVLQSYYYAVSDFSVGGRCKCNGHASECGPDVAGQLACRCQHNTTGTDCERCLPFFQDRPWARGTAEAAHECLPCNCSGRSEECTFDRELFRSTGHGGRCHHCRDHTAGPHCERCQENFYHWDPRMPCQPCDCQSAGSLHLQCDDTGTCACKPTVTGWKCDRCLPGFHSLSEGGCRPCTCNPAGSLDTCDPRSGRCPCKENVEGNLCDRCRPGTFNLQPHNPAGCSSCFCYGHSKVCASTAQFQVHHILSDFHQGAEGWWARSVGGSEHSPQWSPNGVLLSPEDEEELTAPGKFLGDQRFSYGQPLILTFRVPPGDSPLPVQLRLEGTGLALSLRHSSLSGPQDARASQGGRAQVPLQETSEDVAPPLPPFHFQRLLANLTSLRLRVSPGPSPAGPVFLTEVRLTSARPGLSPPASWVEICSCPTGYTGQFCESCAPGYKREMPQGGPYASCVPCTCNQHGTCDPNTGICVCSHHTEGPSCERCLPGFYGNPFAGQADDCQPCPCPGQSACTTIPESGEVVCTHCPPGQRGRRCEVCDDGFFGDPLGLFGHPQPCHQCQCSGNVDPNAVGNCDPLSGHCLRCLHNTTGDHCEHCQEGFYGSALAPRPADKCMPCSCHPQGSVSEQMPCDPVTGQCSCLPHVTARDCSRCYPGFFDLQPGRGCRSCKCHPLGSQEDQCHPKTGQCTCRPGVTGQACDRCQLGFFGSSIKGCRACRCSPLGAASAQCHYNGTCVCRPGFEGYKCDRCHYNFFLTADGTHCQQCPSCYALVKEETAKLKARLTLTEGWLQGSDCGSPWGPLDILLGEAPRGDVYQGHHLLPGAREAFLEQMMGLEGAVKAAREQLQRLNKGARCAQAGSQKTCTQLADLEAVLESSEEEILHAAAILASLEIPQEGPSQPTKWSHLAIEARALARSHRDTATKIAATAWRALLASNTSYALLWNLLEGRVALETQRDLEDRYQEVQAAQKALRTAVAEVLPEAESVLATVQQVGADTAPYLALLASPGALPQKSRAEDLGLKAKALEKTVASWQHMATEAARTLQTAAQATLRQTEPLTMARSRLTATFASQLHQGARAALTQASSSVQAATVTVMGARTLLADLEGMKLQFPRPKDQAALQRKADSVSDRLLADTRKKTKQAERMLGNAAPLSSSAKKKGREAEVLAKDSAKLAKALLRERKQAHRRASRLTSQTQATLQQASQQVLASEARRQELEEAERVGAGLSEMEQQIRESRISLEKDIETLSELLARLGSLDTHQAPAQALNETQWALERLRLQLGSPGSLQRKLSLLEQESQQQELQIQGFESDLAEIRADKQNLEAILHSLPENCASWQ
notes: 170 kDa chain from laminin 12 isolated from human placental chorionic villi, reduced and resolved by SDS-PAGE; also called 170 kDa γ3 chain; 170 kDa band
As for B1, the binding result is on record as “binds”.
